Molecular target: trypsin (bovine) (UniProt P00760)
Experiment: trypsin activity inhibition, fluorogenic substrate Z-Arg-AMC, fit of activity vs inhibitor concentration

Chain of trypsin (bovine) (P00760 24-246): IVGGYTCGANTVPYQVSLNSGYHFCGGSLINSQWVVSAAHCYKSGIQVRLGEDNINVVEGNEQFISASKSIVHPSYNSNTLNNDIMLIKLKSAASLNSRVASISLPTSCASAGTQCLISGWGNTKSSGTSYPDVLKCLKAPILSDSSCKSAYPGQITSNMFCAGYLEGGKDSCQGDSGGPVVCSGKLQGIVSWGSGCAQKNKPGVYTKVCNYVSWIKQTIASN

## antipain (peptide)
  Ki: 39.5 nM

Reference: patent US20160186238A1
